From patent US20260184782A1 (TWIST BIOSCIENCE, published 2026)
Where a chain is given by its changes, count along the chain named.

T1: recombinant human TIGIT (human, UniProt Q495A1 22-141, limits assumed)
T1 construct: recombinant human TIGIT used in Carterra SPR; also called hTIGIT
T1 sequence (looked up): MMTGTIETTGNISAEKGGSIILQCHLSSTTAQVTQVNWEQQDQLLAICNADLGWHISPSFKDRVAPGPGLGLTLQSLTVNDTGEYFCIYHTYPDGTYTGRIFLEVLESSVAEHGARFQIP

T2: human TIGIT-Fc (human, UniProt Q495A1 22-141, limits assumed)
T2 construct: not shown: Fc; not described
T2 sequence (looked up): T1 sequence (looked up)

B1: TIGIT-SC205 (Fc fusion)
VHH: EVQLVESGGGLVQPGGSLRLSCAASGFTFDRSWMGWFRQAPGKEREFVAAIWRSGTLKAYADSVKGRFTISADNGKNTAYLQMNSLKPEDTAVYYCAEGGTTAWGWFVPWGQGTLVTVSS
notes: VHH-Fc fusion in assay
B2: TIGIT-SC174 (Fc fusion)
VHH: EVQLVESGGGLVQPGGSLRLSCAASGFLFDSYAMGWFRQAPGKEREFVAAISWSGGSTYYADSVKGRFTISADNSKNTAYLQMNSLKPEDTAVYYCTTDALRFLEWPWWGQGTLVTVSS
notes: VHH-Fc fusion in assay
B3: TIGIT-SC202 (Fc fusion)
VHH: EVQLVESGGGLVQPGGSLRLSCAASGFTFSPSWMGWFRQAPGKEREWVASVLRGGYTWYADSVKGRFTISADNSKNTAYLQMNSLKPEDTAVYYCTTDGGYSGIVGFAWGQGTLVTVSS
notes: VHH-Fc fusion in assay
B4: TIGIT-SC199 (Fc fusion)
VHH: EVQLVESGGGLVQPGGSLRLSCAASGFSSAQYAMGWFRQAPGKERELVASIDSEGRTNYADSVKGRFTISADNSKNTAYLQMNSLKPEDTAVYYCTRDGGFDPWGQGTLVTVSS
notes: VHH-Fc fusion in assay
B5: TIGIT-SC45 (Fc fusion)
VHH: EVQLVESGGGLVQPGGSLRLSCAASGGTFNAMGWFRQAPGKEREWVASVLRGGYTWYADSVKGRFTISADNSKNTAYLQMNSLKPEDTAVYYCAKDGGSSGTYQNWWGQGTLVTVSS
notes: VHH-Fc fusion in assay
B6: TIGIT-SC186 (Fc fusion)
VHH: EVQLVESGGGLVQPGGSLRLSCAASGNTFSGGFMGWFRQAPGKEREYVASVLRGGYTWYADSVKGRFTISADNSKNTTYLQMNSLKPEDTAVYYCTTDRGYNWNYDWGQGTLVTVSS
notes: VHH-Fc fusion in assay
B7: TIGIT-SC146 (Fc fusion)
VHH: EVQLVESGGGLVQPGGGLRLSCAASGFTLENNMMGWFRQAPGKEREFVAAISASGTLRAYADSVKGRFTISADNSKNTAYLQMNSLKPEDTAVYYCAKGGQAGPMAFYFDYWGQGTLVTVSS
notes: VHH-Fc fusion in assay
B8: TIGIT-SC192 (Fc fusion)
VHH: EVQLVESGGGLVQPGGSLRLSCAASGFTFSVYWMGWFRQAPGKEREFVAAISRSGTLKEYADSVKGRFTISADNSKNTAYLQMNSLKPEDTAVYYCARGSGWPKIHFDYWGQGTLVTVSS
notes: VHH-Fc fusion in assay
B9: TIGIT-SC193 (Fc fusion)
VHH: B8 VHH with V31D, E59A
notes: VHH-Fc fusion in assay
B10: TIGIT-SC181 (Fc fusion)
VHH: EVQLVESGGGLVQPGGSLRLSCAASGFTLSSNWMGWFRQAPGKEREFVASVLRGGYTWYADSVKGRFTISADNSKNTAYLQMNSLKPEDTAVYYCARDAYYYGLWGQGTLVTVSS
notes: VHH-Fc fusion in assay
B11: TIGIT-SC152 (Fc fusion)
VHH: EVQLVESGGGLVQPGGNLRLSCAASGSTFSKHHAMGWFRQAPGKEREFVAGIIRSGTLKAYADSVKGRFTISADNSKNTAYLQMNSLKPEDTAVYYCTRGRAARHNLWYFDLWGQGTLVTVSS
notes: VHH-Fc fusion in assay
B12: TIGIT-SC177 (Fc fusion)
VHH: EVQLVESGGGLVQPGGSLRLSCAASGFTFSPSWMGWFRQAPGKEREWVASVLRGGYTWYADSVKGRFTISADNSKNTAYLQMNSLKPEDTAVYYCATDRGPAMVFNLWGQGTLVTVSS
notes: VHH-Fc fusion in assay
B13: TIGIT-SC141 (Fc fusion)
VHH: EVQLVESGGGLVQPGGSLRLSCAASGNAFSSSVMGWFRQAPGKEREFVAGIWRSGSLKAYADSVKGRFTISADNSKNTAYLQMNSLRPEDTAVYYCARAYVGMTTVTFDHWGQGTLVTVSS
notes: VHH-Fc fusion in assay
B14: TIGIT-SC105 (Fc fusion)
VHH: EVQLVESGGGLVQPGGSLRLSCAASGFAFSRYGMGWFRQAPGKERELVATIGWSGSSTFYADSVKGRFTISADNSKNTAYLQMNSLKPEDTAVYYCARDGGPYYYGLDVWGQGTLVTVSS
notes: VHH-Fc fusion in assay
B15: TIGIT-SC143 (Fc fusion)
VHH: EVQLVESGGGLVQPGGSLRLSCAASGFTLGYYVMGWFRQAPGKEREFVAAISASGTLRAYADSVEGRFTISADNSKNTAYLQMNSLKPEDTAVYYCARAELGYSYGSVDGYWGQGTLVTVSS
notes: VHH-Fc fusion in assay
B16: TIGIT-SC148 (Fc fusion)
VHH: EVQLVESGGGLVQPGGSLRLSCAASGDIGSINAMGWFRQAPGKEREFVAGIWRSGNLKAYADSVKGRFTISADNSKNTAYLQMSSLKPEDTAVYYCARGNIVVVPAAFVIWFDPWGQGTLVTVSS
notes: VHH-Fc fusion in assay
B17: TIGIT-SC109 (Fc fusion)
VHH: EVQLVESGGGLVQPGGSLRLSCAASGRDISSYIMGWFRQAPGKERELVAIIDTNGDDTLYADSAKGRFTISADNSKNTAYLQMNSLKPEDTAVYYCANGGRVWWAFDYWGQGTLVTVSS
notes: VHH-Fc fusion in assay
B18: TIGIT-SC94 (Fc fusion)
VHH: EVQLVESGGGLVQPGGSLRLSCAASGSSFSAYAMGWFRQAPGKEREFVSLINWSSGKTIYADSVKGRFTISADNSKNTAYLQMNSLKPEDTAVYYCARVRIFNHVHRPSYYFDYWGQGTLVTVSS
notes: VHH-Fc fusion in assay
B19: TIGIT-SC96 (Fc fusion)
VHH: EVQLVESGGGLVQPGGSLRLSCAASGMTTIGPMGWFRQAPGKEREFVAAINWSGSSTVYADSVKGRFTISADNSKNTAYLQMNSLKPEDTAVYYCVTYSAYDFRNAWGQGTLVTVSS
notes: VHH-Fc fusion in assay
B20: TIGIT-SC118 (Fc fusion)
VHH: EVQLVESGGGLVQPGGSLRLSCAASGRTFSFMGWFRQAPGKEREWVASVLRGGYTWYADSVKGRFTISADNSKNTAYLQMNSLKPEDTAVYYCAKDGGWFDPWGQGTLVTVSS
notes: VHH-Fc fusion in assay
B21: TIGIT-SC4 (Fc fusion)
VHH: EVQLVESGGGLVQPGGSLRLSCAASGSIDRINAMGWFRQATGKEREWVASVLRGGYTWYADSVKGRFTISADNSKNTAYLQMNSLKPEDTAVYYCARDSYSTSFWFDPWGQGTLVTVSS
notes: VHH-Fc
B22: TIGIT-SC2 (Fc fusion)
VHH: EVQLVESGGGLVQPGGSLRLSCAASGFTLSSNWMGWFRQAPGKEREMVAAIDWSGGSALYADSVKGRFTISADNSKNTAYLQMNSLKPEDTAVYYCAKDALSNSARFDHWGQGTLVTVSS
notes: VHH-Fc
B23: TIGIT-SC1 (Fc fusion)
VHH: EVQLVESGGGLVQPGGSLRLSCAASGFTLNDYAMGWFRQAPGKERELVAWIARYDGSTLYADSVKGRFTISADNSKNTAYLQMNSLKPEDTAVYYCARVDWALNAAPFDYWGQGTLVTVSS
notes: VHH-Fc
B24: TIGIT-SC95 (Fc fusion)
VHH: EVQLVESGGGLVQPGGSLRLSCAASGPTFSTNVMGWFRQAPGKEREFVSSIHWGGSSTVYADSVKGRFTISADNSKNTAYLQMNSLKPEDTAVYYCVTYSAYDFRNAWGQGTLVTVSS
notes: VHH-Fc
B25: TIGIT-SC60 (Fc fusion)
VHH: EVQLVESGGGLVQPGGSLRLSCAASGFTFSPSWMGWFRQAPGKEREWVASVLRGGYTWYADSVKGRFTISADNSKNTAYLQMNSLKPEDTAVYYCARDDLDYWGQGTLVTVSS
notes: VHH-Fc
B26: TIGIT-SC188 (Fc fusion)
VHH: B25 VHH with F27N, P31G, S32G, W33F, A96T, R97T, D99S, D101P, Y102G
notes: VHH-Fc
B27: TIGIT-SC156 (Fc fusion)
VHH: EVQLVESGGGLVQPGGSLRLSCAASGNTFSGGFMGWFRQAPGKEREWVASVLRGGYTWYADSVKGRFTISADNSKNTAYLQMNSLKPEDTAVYYCTTEGYDFWSGYYDYWGQGTLVTVSS
notes: VHH-Fc
B28: TIGIT-SC162 (Fc fusion)
VHH: EVQLVESGGGLVQPGGSLRLSCAASGNTFSGGFMGWFRQAPGKEREWVASVLRGGYTWYADSVKGRFTISADNSKNTAYLQMNSLKPEDTAVYYCTTDRAIGVRPLFDHWGQGTLVTVSS
notes: VHH-Fc
B29: TIGIT-SC3 (Fc fusion)
VHH: EVQLVESGGGLVQPGGSLRLSCAASGTFQRINAMGWFRQAPGKEREFVSTINWSGSNTYYADSVKGRFTISADNSKNTAYLQMNSLKPEDTAVYYCASSYSSSSGLGDIWGQGTLVTVSS
notes: VHH-Fc
B30: TIGIT-SC14 (Fc fusion)
VHH: EVQLVESGGGLVQPGGSLRLSCAASGSISSIHAMGWFRQAPGKEREFVATISRSGVGTFYADSVKGRFTISADNSKNTAYLQMNSLKPEDTAVYYCASSYSSSSGLGDIWGQGTLVTVSS
notes: VHH-Fc

Biological target: T1, recombinant human TIGIT
Test: SPR Carterra, average
Method: Binding affinities of VHH-Fc proteins to recombinant human TIGIT were measured by SPR using a Carterra instrument (Table 10A). […] Average values reported from measurements from 1-2 samples.

Kd	koff	kon	Binder
119 nM	0.0854 s⁻¹	718000 M⁻¹ s⁻¹	B1
124 nM	0.0335 s⁻¹	444000 M⁻¹ s⁻¹	B2
625 nM	0.0934 s⁻¹	93800 M⁻¹ s⁻¹	B3
321 nM	0.128 s⁻¹	399000 M⁻¹ s⁻¹	B4
103 nM	0.00929 s⁻¹	89900 M⁻¹ s⁻¹	B5
170 nM	0.005 s⁻¹	98700 M⁻¹ s⁻¹	B6
1060 nM	0.24 s⁻¹	226000 M⁻¹ s⁻¹	B7
131 nM	0.0715 s⁻¹	545000 M⁻¹ s⁻¹	B8
841 nM	0.178 s⁻¹	211000 M⁻¹ s⁻¹	B9
393 nM	0.168 s⁻¹	428000 M⁻¹ s⁻¹	B10
1470 nM	0.155 s⁻¹	106000 M⁻¹ s⁻¹	B11
340 nM	0.00279 s⁻¹	48600 M⁻¹ s⁻¹	B12
903 nM	0.151 s⁻¹	167000 M⁻¹ s⁻¹	B13
189 nM	0.0116 s⁻¹	61600 M⁻¹ s⁻¹	B14
474 nM	0.239 s⁻¹	504000 M⁻¹ s⁻¹	B15
1320 nM	0.16 s⁻¹	121000 M⁻¹ s⁻¹	B16
121 nM	0.00468 s⁻¹	38700 M⁻¹ s⁻¹	B17
549 nM	0.027 s⁻¹	49200 M⁻¹ s⁻¹	B18
113 nM	0.0176 s⁻¹	166000 M⁻¹ s⁻¹	B19
114 nM	0.00252 s⁻¹	29700 M⁻¹ s⁻¹	B20

Biological target: T2, human TIGIT-Fc
Test: CD155 competition ELISA, single point; note: test concentration or dose not given here
Method: TIGIT/CD155 inhibition of VHH-Fcs were assessed using an ELISA assay (Table 10B). Briefly, human TIGIT-Fc was coated on a plate & then incubated with VHH-Fcs and human CD155-biotin. Bound CD155-biotin was detected using a streptavidin-HRP conjugate visualized with TMB. Strong inhibitors from the single point screen were titrated to determine EC50 (Table 10C).

OD (450 nm)	Binder
0.579 OD	B21
0.407 OD	B22
0.649 OD	B23
0.613 OD	B24
0.349 OD	B25
0.524 OD	B26
0.701 OD	B27
0.423 OD	B28
0.748 OD	B29
0.61 OD	B30
